From US20240101645A1 (HENRY M JACKSON FOUNDATION FOR THE ADVANCEMENT OF MILITARY …, published 2024)

Tests used:
[1] = biological target: T1, HCoV-OC43 spike antigens (bead panel) (HCoV-OC43, UniProt P36334 14-1297); assay: multiplex bead assay
T1 sequence: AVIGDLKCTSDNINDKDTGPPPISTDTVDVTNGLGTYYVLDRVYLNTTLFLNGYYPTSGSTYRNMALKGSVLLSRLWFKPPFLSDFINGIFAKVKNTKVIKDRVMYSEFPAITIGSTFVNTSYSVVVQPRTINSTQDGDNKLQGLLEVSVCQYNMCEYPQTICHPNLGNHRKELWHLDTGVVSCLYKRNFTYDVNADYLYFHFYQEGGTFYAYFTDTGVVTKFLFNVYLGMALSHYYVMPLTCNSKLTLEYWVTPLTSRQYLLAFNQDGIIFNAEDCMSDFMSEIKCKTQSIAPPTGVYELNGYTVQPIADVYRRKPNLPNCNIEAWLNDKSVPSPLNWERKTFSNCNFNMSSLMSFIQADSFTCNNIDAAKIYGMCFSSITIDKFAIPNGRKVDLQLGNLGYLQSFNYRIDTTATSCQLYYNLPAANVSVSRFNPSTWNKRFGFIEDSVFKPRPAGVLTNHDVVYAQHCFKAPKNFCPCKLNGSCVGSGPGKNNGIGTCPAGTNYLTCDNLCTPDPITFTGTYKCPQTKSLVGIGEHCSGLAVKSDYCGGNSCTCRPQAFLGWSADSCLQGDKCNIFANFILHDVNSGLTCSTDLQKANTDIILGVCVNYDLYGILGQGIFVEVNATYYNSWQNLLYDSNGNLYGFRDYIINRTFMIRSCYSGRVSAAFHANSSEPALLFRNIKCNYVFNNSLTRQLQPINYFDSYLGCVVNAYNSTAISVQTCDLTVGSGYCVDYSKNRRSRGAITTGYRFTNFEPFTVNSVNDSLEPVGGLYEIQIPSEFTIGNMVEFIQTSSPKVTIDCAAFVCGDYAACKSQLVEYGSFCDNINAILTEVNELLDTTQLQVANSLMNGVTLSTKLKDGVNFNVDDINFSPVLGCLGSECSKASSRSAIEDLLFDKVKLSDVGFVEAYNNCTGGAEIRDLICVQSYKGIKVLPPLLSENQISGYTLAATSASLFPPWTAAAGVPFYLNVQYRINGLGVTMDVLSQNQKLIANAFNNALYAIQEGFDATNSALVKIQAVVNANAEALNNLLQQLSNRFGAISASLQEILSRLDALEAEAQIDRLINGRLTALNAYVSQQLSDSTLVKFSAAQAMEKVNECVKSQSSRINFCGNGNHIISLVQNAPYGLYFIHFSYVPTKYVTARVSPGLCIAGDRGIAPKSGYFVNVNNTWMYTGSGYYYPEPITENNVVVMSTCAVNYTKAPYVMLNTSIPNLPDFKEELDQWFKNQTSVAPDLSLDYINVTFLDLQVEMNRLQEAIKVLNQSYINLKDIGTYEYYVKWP

[2] = biological target: T2, HCoV-NL63 spike antigens (bead panel) (HCoV-NL63, UniProt Q6Q1S2 19-1296); assay: multiplex bead assay
T2 sequence: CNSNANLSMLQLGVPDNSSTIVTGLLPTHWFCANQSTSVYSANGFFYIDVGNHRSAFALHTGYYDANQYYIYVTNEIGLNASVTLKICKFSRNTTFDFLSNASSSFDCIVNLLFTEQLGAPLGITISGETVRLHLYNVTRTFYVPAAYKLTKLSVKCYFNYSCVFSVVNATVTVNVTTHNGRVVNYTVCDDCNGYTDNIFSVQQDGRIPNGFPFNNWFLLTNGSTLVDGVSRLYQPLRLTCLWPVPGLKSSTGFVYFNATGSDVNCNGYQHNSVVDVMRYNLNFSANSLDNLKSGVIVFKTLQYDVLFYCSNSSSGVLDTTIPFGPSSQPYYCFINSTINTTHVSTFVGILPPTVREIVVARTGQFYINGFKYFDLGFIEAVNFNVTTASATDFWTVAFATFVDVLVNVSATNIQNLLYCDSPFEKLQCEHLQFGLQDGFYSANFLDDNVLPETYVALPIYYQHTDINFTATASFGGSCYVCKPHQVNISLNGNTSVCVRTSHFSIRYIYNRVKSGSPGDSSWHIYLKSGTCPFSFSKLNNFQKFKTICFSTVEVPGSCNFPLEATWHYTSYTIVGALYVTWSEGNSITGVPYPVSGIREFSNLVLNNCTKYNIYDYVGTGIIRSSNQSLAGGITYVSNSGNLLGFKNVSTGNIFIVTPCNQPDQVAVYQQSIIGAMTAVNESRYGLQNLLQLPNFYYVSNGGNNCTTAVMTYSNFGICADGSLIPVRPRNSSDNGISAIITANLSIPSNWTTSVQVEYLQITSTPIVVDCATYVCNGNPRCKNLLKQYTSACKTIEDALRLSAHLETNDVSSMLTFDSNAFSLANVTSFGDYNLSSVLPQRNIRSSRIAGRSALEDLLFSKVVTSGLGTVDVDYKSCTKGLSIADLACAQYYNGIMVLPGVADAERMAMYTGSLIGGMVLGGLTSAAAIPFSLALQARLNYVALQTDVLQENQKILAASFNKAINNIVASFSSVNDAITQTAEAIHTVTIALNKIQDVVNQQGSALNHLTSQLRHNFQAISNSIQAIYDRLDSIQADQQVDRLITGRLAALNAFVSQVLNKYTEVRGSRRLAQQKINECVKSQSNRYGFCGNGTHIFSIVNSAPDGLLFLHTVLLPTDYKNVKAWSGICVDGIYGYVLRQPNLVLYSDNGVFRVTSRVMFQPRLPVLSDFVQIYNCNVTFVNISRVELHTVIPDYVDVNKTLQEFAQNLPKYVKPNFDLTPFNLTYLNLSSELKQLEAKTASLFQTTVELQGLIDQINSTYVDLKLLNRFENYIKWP

[3] = biological target: T3, HCoV-229E spike antigens (bead panel) (HCoV-229E, UniProt P15423 16-1115); assay: multiplex bead assay
T3 sequence: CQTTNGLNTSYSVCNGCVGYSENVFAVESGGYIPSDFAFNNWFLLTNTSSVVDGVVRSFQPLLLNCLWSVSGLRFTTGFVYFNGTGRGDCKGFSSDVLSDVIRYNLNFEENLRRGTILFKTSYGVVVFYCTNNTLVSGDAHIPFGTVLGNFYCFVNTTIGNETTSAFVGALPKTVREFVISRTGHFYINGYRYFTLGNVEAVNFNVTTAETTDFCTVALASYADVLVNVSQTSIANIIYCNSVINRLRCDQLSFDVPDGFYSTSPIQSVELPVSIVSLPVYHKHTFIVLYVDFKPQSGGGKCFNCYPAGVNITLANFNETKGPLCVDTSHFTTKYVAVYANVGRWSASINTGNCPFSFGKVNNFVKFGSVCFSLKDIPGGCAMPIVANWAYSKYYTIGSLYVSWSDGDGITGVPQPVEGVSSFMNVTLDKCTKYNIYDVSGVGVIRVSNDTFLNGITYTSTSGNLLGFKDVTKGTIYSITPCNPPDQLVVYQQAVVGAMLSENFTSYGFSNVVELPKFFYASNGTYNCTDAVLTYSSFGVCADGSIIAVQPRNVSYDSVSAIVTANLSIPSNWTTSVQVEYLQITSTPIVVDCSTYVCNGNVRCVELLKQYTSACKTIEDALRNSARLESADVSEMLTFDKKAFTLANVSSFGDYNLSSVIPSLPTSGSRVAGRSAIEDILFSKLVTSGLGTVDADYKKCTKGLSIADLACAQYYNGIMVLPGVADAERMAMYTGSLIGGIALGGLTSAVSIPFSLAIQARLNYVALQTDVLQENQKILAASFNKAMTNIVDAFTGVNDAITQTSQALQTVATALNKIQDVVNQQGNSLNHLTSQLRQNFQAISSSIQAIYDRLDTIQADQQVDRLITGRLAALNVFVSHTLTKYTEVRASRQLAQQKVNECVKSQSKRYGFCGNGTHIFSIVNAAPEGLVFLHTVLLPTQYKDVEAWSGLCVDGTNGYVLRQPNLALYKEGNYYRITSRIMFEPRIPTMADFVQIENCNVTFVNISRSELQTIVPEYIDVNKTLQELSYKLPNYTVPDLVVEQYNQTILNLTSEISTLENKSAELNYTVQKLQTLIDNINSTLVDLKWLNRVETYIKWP

[4] = biological target: SARS-CoV-1 spike antigens (bead panel) (SARS-CoV-1, UniProt P59594 14-1195); assay: multiplex bead assay
[5] = biological target: SARS-CoV-2 S on pseudovirions (Wuhan Hu-1 / IL1/2020, last 18 amino acids removed) (SARS-CoV-2, UniProt P0DTC2 14-1273); assay: cell-based or functional assay

B1: COV_1007 (antibody, V domains shown)
VH: QVTLKESGPVLVKPTETLTLTCTVSGFSLINARVGVSWIRQPPGKALDWLAHIFSSDEKSYSTSLKSRLTISKDTSKSQVVLTMTNMDPVDTATYYCARIRWLSSYYFDYWGQGTLVTVSS
VL: DIRMTQSPSSVSASVGDRVTITCRASQGISNWLAWYQQKPGKAPKLLIYAASSLQSGVPSRFSGGGSGTDFTLTISSLQPEDFATYYCQQANSFLLTFGGGTKVEIK
notes: human IgG1
B1: no binding [1]; no binding [2]; no binding [3]. The binding result [4] was “no binding”, the “Mean IC50, pSV neutralization” value [5] was 9 µg/ml and the “Mean IC80, pSV neutralization” value [5] was no less than 25 µg/ml.
